B1: HSP90AB1 (parent)
chain: EADKNDKAVKDLVVLLFETALLSS

Variants of: B1
Assay: protein stability index of a GFP-peptide fusion (GPS, HEK-293T) (PSI 1-6); higher = more stable
Details: c terminus: a fixed tail appended
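Further: lentivirally expressed fusions sorted by FACS into six bins by GFP to DsRed ratio, PSI derived from sequencing read proportions per bin multiplied by bin number.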

Protein stability index of substitutions, site by site:
V13: E 3.74, Y 2.33, P 3.78, F 2.41, T 3.27, R 2.98, D 3.81, Q 4.08, A 2.41, L 2.1, H 2.58, S 3.54, C 2.03, N 3.7, I 1.93, K 3.37, G 3.38
K10: F 2.22, W 1.83, I 1.96, T 2.26, L 1.82, Q 2.19, D 2.42, C 1.96, E 2.18, S 1.82, H 2.38, R 1.8, N 2.01, Y 2.7, P 1.49, G 1.86, A 1.82, V 2.48, M 1.83
N5: M 2.27, W 2.28, H 1.68, Y 1.83, E 2.06, K 2.35, A 2.57, F 1.64, L 1.99, I 1.9, G 1.67, Q 1.8, V 1.93, P 1.59, S 2, T 2.43, R 1.63
S23: I 3.41, V 2.41, K 1.91, T 2.15, N 1.96, L 3.33, G 1.95, F 1.68, A 2.21, P 1.96, M 2.65, C 2.22, D 2.26, Q 1.64, R 2.54, H 2.26
L21: K 2.35, H 2.27, S 2.28, Y 1.48, F 2.13, I 2.17, V 1.94, G 2.58, D 2.57, N 3.31, C 2.14, R 2.11, M 1.86, A 2.49, T 2.79, P 2.88
F17: C 2.59, N 3.94, R 3.31, D 4.65, G 4.26, W 2.26, E 4.22, S 3.89, M 2.1, Q 3.82, H 3.13, A 3.56, T 3.67, K 3.76, P 4.3, V 1.92, I 1.84, L 1.76, Y 2.13
V14: L 1.72, G 2.19, D 3.03, C 2.81, R 2.29, A 1.77, T 2.12, Q 2.33, I 2.04, F 1.98, Y 1.88, M 1.61, N 2.21, K 2.64, W 1.92, P 3.93, S 2.17
L15: G 3.23, Y 2.04, Q 3.06, K 2.48, M 1.92, S 2.77, D 3.61, H 2.69, C 2.15, T 2.71, A 2.52, R 2.64, E 3.5, N 3.62, P 4.06, I 1.95, W 3.99, V 1.5
A8: V 1.63, I 1.55, W 2.07, F 2.18, D 2.44, L 2.43, G 1.97, R 2.19, M 2.62, C 2.56, S 2.22, H 2.62, N 2.2, T 1.87, K 1.94, E 2.12, P 2.01
L12: A 2.52, P 3.2, Y 2.16, F 1.72, N 3.89, Q 3.71, C 2.35, K 3.6, E 3.99, S 3.49, V 2.1, I 2.46, R 3.44, H 3.27, M 2.2, T 2.73, G 3.5, D 4.21
L22: G 2.77, N 2.68, R 2.09, S 2.7, T 2.29, Y 1.5, E 2.95, D 3.01, H 2.18, V 2.17, M 1.86, A 2.85, F 1.8, W 1.64, Q 2.29
T19: V 2.11, P 1.83, F 2.57, E 2.71, G 2.49, K 2.2, Y 2.02, H 2.2, N 2.15, I 2.92, M 2.29, D 2.32, A 1.42, W 2.52, Q 1.75, C 2.54, L 1.98, S 2.15, R 1.99
K7: F 2.32, A 1.95, M 2.47, C 1.44, I 2.77, L 2.47, T 1.84, W 3.3, D 2, Q 1.67, G 2.17, R 2.02, Y 2.79, N 1.95, S 1.92, H 2, P 2.24
A20: L 1.44, V 1.88, N 2.16, R 2.42, G 2.46, T 1.99, E 2.43, D 2.85, S 2.8, I 2.19, Q 2.44, F 2.42, Y 1.44, C 1.47, W 2.07, M 1.97, P 2.27
D6: A 2.51, G 1.85, L 2.27, F 3.2, C 2.48, T 1.42, N 1.9, K 1.28, Q 2.2, Y 1.69, M 2.64, I 3.48, E 1.63, V 1.9, R 1.73, H 2.6, W 1.69
L16: Q 4.37, K 3.62, R 3.37, V 2.16, E 4.31, N 4.05, P 4.67, I 2.07, T 3.63, A 3.56, C 3.07, S 3.94, G 4.18, D 4.88, Y 2.27, F 1.69, H 3.34, W 2.2
D11: C 3.23, K 2.15, I 3.6, Q 1.97, M 1.65, F 2.86, S 1.99, R 3.27, P 1.51, A 2.54, T 3.74, G 2.68, E 1.98, Y 2.79, W 3.06, V 3.05, H 2.61, N 2.67
E18: D 1.33, R 2.21, S 2.16, I 3.81, A 2.2, P 2.73, W 2.79, K 2.42, H 2.07, M 3, T 2.01, L 2.61, C 1.82, Q 1.77, G 4.31, F 3.16, N 1.7, V 4.33
V9: E 3.07, Q 1.7, Y 2.16, D 2.44, M 1.8, C 1.81, K 2.15, I 1.84, T 2.49, R 1.95, F 2.17, S 2.1, H 3, P 2.81, W 1.7, A 1.97, L 2.42
K4: V 1.85, Y 2.13, W 2.12, T 2.06

From the supplement of paper PMC10567573
